This note sets out measurements from article PMC9798723.

Experiment [1] deals with synthetic Aβ42CC (amyloid-β 1-42 peptide with A21C/A30C mutations) (human). The experiment can be described thus: SEC-MALS; synthetic Aβ42CC 0.6 mg/mL, 50 min at RT after neutralisation to pH 7.2, then frozen; TSK-GEL G4000SWxl, 20 mM sodium phosphate, 150 mM NaCl, pH 7.4, autosampler 5 °C. (In gel filtration, larger molecules generally elute earlier.)
For experiment [2] the target is unchanged. Put plainly: SEC-MALS; oligomeric preparations (synthetic Aβ42CC 8 h or 24 h at RT at pH 7.2, or aggregated at RT in PBS at 0.6 mg/mL; recombinant Aβ42CC after concentration or incubation); TSK-GEL G4000SWxl, 20 mM sodium phosphate, 150 mM NaCl, pH 7.4, autosampler 5 °C.

“synthetic Aβ42CC (amyloid-β 1-42 peptide with A21C/A30C mutations)”: the percent of the peptide present as 104 kDa oligomers in experiment [1] turned out to be 20%. In experiment [2], the oligomer content is over 94%.
